Key:
AncSZ = assay: phosphorylation enrichment, bacterial display (enrichment ratio); higher = better substrate or ligand; peptides without Tyr show the background
EPHB1 = EPHB1 (UniProt P54762); assay: as above
EPHB2 = EPHB2 (UniProt P29323); assay: as above
FGFR1 = FGFR1 (UniProt P11362); assay: as above
FGFR3 = FGFR3 (UniProt P22607); assay: as above
Fer (mouse) = assay: as above
Fes = Fes (UniProt P07332); assay: as above
Fyn = Fyn (UniProt P06241); assay: as above
Hck = Hck (UniProt P08631); assay: as above
Jak2 = Jak2 (UniProt O60674); assay: as above
MERTK = MERTK (UniProt Q12866); assay: as above
Sequence of MERTK (Q12866 whole entry, looked up): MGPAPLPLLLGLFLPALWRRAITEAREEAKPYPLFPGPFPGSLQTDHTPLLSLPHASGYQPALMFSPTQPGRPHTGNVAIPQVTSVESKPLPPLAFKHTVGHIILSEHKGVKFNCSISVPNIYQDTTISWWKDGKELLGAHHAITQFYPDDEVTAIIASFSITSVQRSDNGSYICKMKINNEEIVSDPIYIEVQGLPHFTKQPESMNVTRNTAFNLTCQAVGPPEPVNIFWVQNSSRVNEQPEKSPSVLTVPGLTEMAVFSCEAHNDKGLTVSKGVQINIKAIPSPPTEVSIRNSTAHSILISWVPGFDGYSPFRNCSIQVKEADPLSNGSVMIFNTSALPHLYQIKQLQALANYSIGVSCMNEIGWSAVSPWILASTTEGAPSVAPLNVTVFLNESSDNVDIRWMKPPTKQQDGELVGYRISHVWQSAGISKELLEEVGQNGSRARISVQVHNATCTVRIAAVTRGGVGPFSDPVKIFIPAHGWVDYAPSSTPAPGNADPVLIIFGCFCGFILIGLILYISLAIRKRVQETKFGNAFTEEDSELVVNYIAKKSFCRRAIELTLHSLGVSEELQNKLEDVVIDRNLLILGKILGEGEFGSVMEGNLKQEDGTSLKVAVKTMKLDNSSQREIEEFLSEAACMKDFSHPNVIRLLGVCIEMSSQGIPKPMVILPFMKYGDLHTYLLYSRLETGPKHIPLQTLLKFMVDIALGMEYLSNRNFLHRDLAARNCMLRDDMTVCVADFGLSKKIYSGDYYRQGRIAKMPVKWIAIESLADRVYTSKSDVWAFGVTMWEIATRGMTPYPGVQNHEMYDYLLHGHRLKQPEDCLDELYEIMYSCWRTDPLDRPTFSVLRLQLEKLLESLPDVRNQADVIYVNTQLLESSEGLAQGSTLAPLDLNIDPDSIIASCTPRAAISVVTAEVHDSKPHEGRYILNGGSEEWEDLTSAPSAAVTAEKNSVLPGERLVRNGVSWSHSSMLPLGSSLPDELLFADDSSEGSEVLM

c-Abl (mouse) = assay: as above
c-Src = assay: as above
Grb2 SH2 = Grb2 SH2 (UniProt P62993); assay: SH2 binding enrichment of the phosphorylated peptide, bacterial display (enrichment ratio); higher = better substrate or ligand; peptides without Tyr show the background
SHP2-C SH2 = assay: as above
c-Src SH2 = assay: as above
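Throughout, for SH2 binding enrichment of the phosphorylated peptide, bacterial display: peptide library displayed on the E. coli surface as eCPX fusions, selected cells deep-sequenced, score is each peptide's frequency after selection divided by its frequency in the input.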
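Throughout, for phosphorylation enrichment, bacterial display: 11-residue human phosphosite peptides and single-mutation variants displayed on the E. coli surface, counted by deep sequencing, each peptide's frequency after selection divided by its frequency in the unselected input library; frequency after pTyr selection over input frequency; kinase dosed for 20-30% of maximal phosphorylation in three min.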

Sequence of Fes (P07332 whole entry, looked up): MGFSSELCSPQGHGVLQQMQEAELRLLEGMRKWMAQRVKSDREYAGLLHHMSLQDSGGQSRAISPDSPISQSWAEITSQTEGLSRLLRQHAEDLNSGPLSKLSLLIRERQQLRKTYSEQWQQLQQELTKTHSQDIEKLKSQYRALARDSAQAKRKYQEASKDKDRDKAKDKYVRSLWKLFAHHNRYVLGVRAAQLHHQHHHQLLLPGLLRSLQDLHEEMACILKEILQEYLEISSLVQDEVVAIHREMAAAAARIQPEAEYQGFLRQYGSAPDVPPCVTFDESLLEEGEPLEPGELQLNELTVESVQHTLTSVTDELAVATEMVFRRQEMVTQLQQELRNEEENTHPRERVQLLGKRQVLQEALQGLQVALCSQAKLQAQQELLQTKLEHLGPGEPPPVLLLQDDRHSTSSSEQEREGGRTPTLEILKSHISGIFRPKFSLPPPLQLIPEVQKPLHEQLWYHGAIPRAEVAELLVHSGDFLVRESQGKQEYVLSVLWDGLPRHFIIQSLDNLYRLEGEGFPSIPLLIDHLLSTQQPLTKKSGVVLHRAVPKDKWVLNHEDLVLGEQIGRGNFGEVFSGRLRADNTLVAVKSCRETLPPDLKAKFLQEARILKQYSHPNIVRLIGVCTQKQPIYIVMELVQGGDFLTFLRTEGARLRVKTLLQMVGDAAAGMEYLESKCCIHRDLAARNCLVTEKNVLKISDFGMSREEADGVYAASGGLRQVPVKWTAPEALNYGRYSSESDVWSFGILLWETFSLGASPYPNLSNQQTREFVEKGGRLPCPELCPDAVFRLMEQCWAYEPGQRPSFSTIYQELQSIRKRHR
Sequence of Fyn (P06241 whole entry, looked up): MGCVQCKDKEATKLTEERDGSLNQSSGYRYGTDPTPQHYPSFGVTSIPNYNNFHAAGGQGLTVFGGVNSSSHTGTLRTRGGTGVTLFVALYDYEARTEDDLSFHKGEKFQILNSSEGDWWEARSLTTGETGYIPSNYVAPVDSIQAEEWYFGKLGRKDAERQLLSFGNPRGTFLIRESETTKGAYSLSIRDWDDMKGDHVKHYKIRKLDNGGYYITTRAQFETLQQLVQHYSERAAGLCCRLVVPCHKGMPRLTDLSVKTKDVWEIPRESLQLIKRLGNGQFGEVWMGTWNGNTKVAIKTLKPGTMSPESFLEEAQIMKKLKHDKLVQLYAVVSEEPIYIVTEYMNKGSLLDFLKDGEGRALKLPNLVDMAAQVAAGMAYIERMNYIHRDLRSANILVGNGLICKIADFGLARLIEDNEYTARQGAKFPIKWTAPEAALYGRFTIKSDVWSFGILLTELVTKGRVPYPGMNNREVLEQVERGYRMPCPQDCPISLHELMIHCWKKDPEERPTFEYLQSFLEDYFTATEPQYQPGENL
Sequence of EPHB2 (P29323 whole entry, looked up): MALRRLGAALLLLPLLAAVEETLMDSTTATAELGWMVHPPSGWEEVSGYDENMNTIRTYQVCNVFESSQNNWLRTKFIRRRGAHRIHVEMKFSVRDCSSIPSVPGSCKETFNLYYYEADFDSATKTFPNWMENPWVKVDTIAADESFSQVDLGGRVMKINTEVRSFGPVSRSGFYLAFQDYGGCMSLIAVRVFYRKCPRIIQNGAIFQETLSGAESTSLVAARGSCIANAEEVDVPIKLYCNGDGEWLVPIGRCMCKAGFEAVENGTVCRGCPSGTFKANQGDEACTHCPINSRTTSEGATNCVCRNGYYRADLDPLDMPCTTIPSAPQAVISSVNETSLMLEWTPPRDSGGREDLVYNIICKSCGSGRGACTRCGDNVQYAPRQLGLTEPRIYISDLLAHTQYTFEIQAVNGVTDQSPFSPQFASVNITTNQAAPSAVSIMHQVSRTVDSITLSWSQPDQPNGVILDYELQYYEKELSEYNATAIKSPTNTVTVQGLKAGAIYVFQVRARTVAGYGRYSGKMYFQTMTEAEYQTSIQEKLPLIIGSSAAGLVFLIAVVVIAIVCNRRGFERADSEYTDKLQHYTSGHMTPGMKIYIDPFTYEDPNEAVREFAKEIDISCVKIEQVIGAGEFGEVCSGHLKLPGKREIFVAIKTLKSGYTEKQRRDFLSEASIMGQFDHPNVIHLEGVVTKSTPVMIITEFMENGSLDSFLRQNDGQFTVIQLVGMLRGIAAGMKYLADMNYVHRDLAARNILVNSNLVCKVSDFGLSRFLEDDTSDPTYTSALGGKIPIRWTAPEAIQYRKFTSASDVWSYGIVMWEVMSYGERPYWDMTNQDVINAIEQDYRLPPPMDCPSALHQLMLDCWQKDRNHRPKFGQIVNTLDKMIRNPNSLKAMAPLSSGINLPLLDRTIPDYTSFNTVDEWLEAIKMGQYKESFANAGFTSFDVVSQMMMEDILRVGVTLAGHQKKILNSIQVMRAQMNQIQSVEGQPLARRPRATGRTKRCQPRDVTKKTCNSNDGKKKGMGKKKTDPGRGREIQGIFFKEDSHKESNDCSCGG
Sequence of FGFR1 (P11362 whole entry, looked up): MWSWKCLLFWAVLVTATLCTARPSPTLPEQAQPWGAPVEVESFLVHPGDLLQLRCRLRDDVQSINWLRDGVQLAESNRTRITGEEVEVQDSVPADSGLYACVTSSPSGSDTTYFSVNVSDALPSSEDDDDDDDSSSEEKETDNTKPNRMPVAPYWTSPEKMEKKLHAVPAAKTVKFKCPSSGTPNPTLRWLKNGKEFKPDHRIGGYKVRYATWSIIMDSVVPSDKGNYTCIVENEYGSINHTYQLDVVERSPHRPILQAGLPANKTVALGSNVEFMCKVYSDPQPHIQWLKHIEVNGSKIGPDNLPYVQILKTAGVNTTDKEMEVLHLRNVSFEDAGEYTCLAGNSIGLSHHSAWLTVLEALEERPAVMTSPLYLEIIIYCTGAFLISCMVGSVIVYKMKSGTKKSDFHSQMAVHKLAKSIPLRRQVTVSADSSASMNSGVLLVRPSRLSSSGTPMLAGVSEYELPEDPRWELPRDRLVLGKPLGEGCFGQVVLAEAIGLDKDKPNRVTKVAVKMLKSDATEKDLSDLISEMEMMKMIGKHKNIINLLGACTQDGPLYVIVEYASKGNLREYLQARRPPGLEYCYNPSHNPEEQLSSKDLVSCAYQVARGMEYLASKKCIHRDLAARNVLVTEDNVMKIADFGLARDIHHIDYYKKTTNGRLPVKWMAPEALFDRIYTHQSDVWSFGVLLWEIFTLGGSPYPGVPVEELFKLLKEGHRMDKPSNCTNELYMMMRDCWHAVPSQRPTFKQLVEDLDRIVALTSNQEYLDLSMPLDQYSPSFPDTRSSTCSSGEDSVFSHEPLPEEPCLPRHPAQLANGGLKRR
Sequence of FGFR3 (P22607 whole entry, looked up): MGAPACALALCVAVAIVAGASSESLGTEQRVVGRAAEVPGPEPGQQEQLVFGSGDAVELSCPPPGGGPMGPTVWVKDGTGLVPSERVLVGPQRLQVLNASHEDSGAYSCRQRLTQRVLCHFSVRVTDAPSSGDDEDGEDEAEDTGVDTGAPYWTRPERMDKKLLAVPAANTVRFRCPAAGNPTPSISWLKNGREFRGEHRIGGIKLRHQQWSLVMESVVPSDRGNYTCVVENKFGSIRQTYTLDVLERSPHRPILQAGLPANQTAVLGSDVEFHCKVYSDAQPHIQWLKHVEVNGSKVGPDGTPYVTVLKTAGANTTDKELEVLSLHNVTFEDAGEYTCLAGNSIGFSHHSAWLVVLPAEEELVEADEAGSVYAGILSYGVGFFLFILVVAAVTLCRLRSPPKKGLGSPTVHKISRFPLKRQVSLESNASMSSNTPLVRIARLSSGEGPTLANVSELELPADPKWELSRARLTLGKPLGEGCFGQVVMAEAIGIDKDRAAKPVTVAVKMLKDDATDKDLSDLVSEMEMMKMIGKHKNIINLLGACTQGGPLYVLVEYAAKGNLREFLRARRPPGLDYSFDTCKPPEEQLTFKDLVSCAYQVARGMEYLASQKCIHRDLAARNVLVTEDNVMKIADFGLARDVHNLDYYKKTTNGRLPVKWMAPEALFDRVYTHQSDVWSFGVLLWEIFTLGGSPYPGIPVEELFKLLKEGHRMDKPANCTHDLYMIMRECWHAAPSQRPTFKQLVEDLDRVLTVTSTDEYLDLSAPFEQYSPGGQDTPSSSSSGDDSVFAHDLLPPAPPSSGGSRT

Sequence	phosphorylation enrichment (AncSZ)	phosphorylation enrichment (EPHB1)	phosphorylation enrichment (EPHB2)	phosphorylation enrichment (FGFR1)	phosphorylation enrichment (FGFR3)	phosphorylation enrichment (Fer (mouse))	phosphorylation enrichment (Fes)	phosphorylation enrichment (Fyn)	phosphorylation enrichment (Hck)	phosphorylation enrichment (Jak2)	phosphorylation enrichment (MERTK)	phosphorylation enrichment (c-Abl (mouse))	phosphorylation enrichment (c-Src)	SH2 binding enrichment (Grb2 SH2)	SH2 binding enrichment (SHP2-C SH2)	SH2 binding enrichment (c-Src SH2)
PQDVTYARLHS [LILRB4_Y412_Q414R]	0.757	0.808	0.797	0.774	0.603	0.786	1.51	1.91	4.33	0.518	0.735	0.842	2.3	0.85	5.59	1.12
PQIVNYSPDCI [LDHB_Y128_K127N]	0.415	0.668	0.451	0.684	0.939	0.83	0.824	0.457	1	0.254	0.179	0.216	0.387	0.891	0.492	0.506
PRDGEYFTLQI [TP53_Y327_L323R]	2.81	1.31	1.19	11.7	8.55	0.775	1.38	2.55	2.14	3.26	0.93	1.75	3.76	0.753	0.631	0.405
PRPACYPSTVS [CACNA1C_Y1832_G1831C]	0.554	0.575	0.435	0.49	0.598	0.381	0.792	0.51	0.49	0.721	0.356	0.437	0.484	0.865	0.8	0.65
PSQRRYLFFFS [PTEN_Y174_V175L_YF]	1.86	0.818	0.804	0.607	0.915	0.531	1.93	0.753	0.716	1.74	0.756	0.991	0.441	0.936	1.15	0.655
PSRKDYETYQP [CTNND2_Y1154]	1.04	1.49	2.62	0.592	0.695	0.485	1.02	0.55	0.873	0.677	0.6	0.95	0.62	0.905	0.818	0.597
PTATSYNPNLA [GABRA1_Y375_T376N]	1.39	0.808	0.607	0.864	0.878	0.824	1.34	0.748	0.621	1.55	1.06	1.57	1.43	0.847	0.82	0.617
PTYEHYANSTQ [SLC12A3_Y70]	1.05	1.2	2.33	0.492	0.807	0.828	1.2	2.56	1.53	0.924	0.912	0.753	5.29	1.75	0.663	2.47
PVEAAYQKVVA [HBB_Y131_Q128E]	0.819	0.397	0.401	0.573	0.617	0.558	0.695	0.56	0.612	0.556	0.52	0.601	0.517	0.725	0.713	0.964
PVKSEYSSIKL [NPC2_Y119_P120S]	0.783	0.579	0.533	0.518	0.523	0.702	1.06	0.553	1.11	0.737	0.5	1.03	0.602	0.665	4.74	1.95
PYSSPYENSLI [EPOR_Y489_N487S]	0.83	0.39	0.596	0.527	0.506	2.52	0.924	0.668	0.705	0.929	0.683	0.902	0.875	2.51	0.773	5.18
QEITTYRRLLE [KRT14_Y415_A413T]	1.03	0.619	0.548	0.657	0.78	0.505	1.11	0.708	0.542	1.07	0.416	0.815	0.649	0.915	0.598	0.493
QELRRYLKSGI [MICA_Y194_V199I]	0.489	0.332	0.281	0.429	0.313	0.534	0.458	0.482	0.496	0.335	0.406	0.402	0.294	0.747	0.525	0.434
QFPDIYAREEV [CRX_Y67_V66I_YF]	1.82	0.628	1.21	1.15	1.26	0.707	1.91	0.959	1.56	2.02	0.773	0.99	1.23	1.02	0.9	0.525
QGIPRYHSQSP [FOXF1_Y331]	1.01	0.783	0.849	0.821	0.677	0.744	1.58	0.796	1.02	0.691	1.22	1.4	1.08	0.733	0.562	0.537
QHNPEYVQQAS [LRRC7_Y1058]	0.843	0.542	0.604	0.486	0.65	0.73	0.867	0.486	0.69	0.544	0.423	0.641	0.597	0.712	0.64	0.561
QHVPDYRQNGF [PCDHGA1_Y890_V894G_YF]	0.787	0.589	0.459	0.55	0.597	0.503	0.875	0.531	0.455	0.826	0.464	0.758	0.543	0.776	0.633	0.494
